Test results as given in patent US20200030425 (published 2020).
Where “and” joins values, the source holds several entries; their conditions need not be identical. Identical values can stand only once.

Biological target: T1, human ICOS-Fc (human)
T1 chain: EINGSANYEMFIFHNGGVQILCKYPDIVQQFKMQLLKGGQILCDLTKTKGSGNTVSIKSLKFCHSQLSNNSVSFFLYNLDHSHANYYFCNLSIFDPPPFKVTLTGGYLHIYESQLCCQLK
Test: SPR 37C

Kd: 52 nM and 65 nM
B1: ICOS.33 IgG1f S267E Fab (antibody, V domains shown)
VH: EVQLVESGGGLVKPGGSLRLSCAASGFTFSDYFMHWVRQAPGKGLEWVGVIDTKSFNYATYYSDLVKGRFTISRDDSKNTLYLQMNSLKTEDTAVYYCTATIAVPYYFDYWGQGTLVTVSS
VL: DIQMTQSPSSLSASVGDRVTITCQASQDISNYLSWYQQKPGKAPKLLIYYTNLLAEGVPSRFSGSGSGTDFTFTISSLQPEDIATYYCQQYYNYRTFGPGTKVDIK
